From PMC8500521

Biological target: HR2 (heptad repeat 2) polypeptide of SARS-CoV-2 spike protein (SARS-CoV-2) (UniProt P0DTC2)
Assay: AUC; sedimentation velocity, 50,000 rpm, 20 C, 50 mM NaCl, 25 mM sodium phosphate pH 6.0, no detergent; monomer to tetramer

## HR2 (heptad repeat 2) polypeptide of SARS-CoV-2 spike protein (from UniProt P0DTC2 1171-1207) (domain or fragment)
  monomer population at 250 uM: 10%
  stoichiometry N: 4
